Where no end group is shown, it is not given here. [ ]: non-standard residue; d: D form. pT = C[C@@H](OP(=O)(O)O)[C@H](N)C(=O)O
Target: recombinant protein phosphatase-1 catalytic subunit alpha (PP1cα) (UniProt P62136 1-330)
Experiment: ITC

recombinant protein phosphatase-1 catalytic subunit alpha (PP1cα), sequence (P62136 whole entry): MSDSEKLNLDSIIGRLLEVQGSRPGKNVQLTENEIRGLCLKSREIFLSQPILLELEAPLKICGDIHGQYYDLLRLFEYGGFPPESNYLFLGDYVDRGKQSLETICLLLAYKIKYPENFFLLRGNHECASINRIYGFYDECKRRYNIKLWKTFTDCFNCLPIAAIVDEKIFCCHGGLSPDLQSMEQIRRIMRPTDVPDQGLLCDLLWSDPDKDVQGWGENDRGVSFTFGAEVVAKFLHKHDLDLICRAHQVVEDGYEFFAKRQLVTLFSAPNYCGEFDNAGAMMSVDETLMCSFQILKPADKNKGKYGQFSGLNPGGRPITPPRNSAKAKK

- Ka: 2.57e+06 M⁻¹
Binder: RQSRRS[pT]QGVTL
